What was measured:
HuB6 (human) = assay: SPR; HuB6 and human FcγRs; who was immobilised not given; n = 3
urelumab = assay: flow cytometry on cells; details: Ab 10 µg/ml (highest point of the titration); antigen transfected into Expi293 cells; parent: est. 17000; read off a plot
HuB6 = assay: flow cytometry on cells; details: Ab 10 µg/ml (highest point of the titration); antigen transfected into Expi293 cells; parent: est. 17000; read off a plot
utomilumab = assay: flow cytometry on cells; details: Ab 10 µg/ml (highest point of the titration); antigen transfected into Expi293 cells; parent: est. 14000; read off a plot
mouse 4-1BB-ECD-mFc = target: T1, mouse 4-1BB-ECD-mFc (Mus musculus, UniProt P20334); assay: ELISA; indirect ELISA; plates coated with 4-1BB-mFc (1 μg/mL mouse, 350 ng/mL cynomolgus) in carbonate buffer; serially diluted antibodies, room temperature 2 h; HRP goat anti-human Fc; details: both partners purified
T1 construct: mouse 4-1BB, UniProt P20334, extracellular domain; also called Mu4-1BB; murine 4-1BB; source: Expi293F, transfected, purified (MabSelect PrismA); not shown: Fc (mouse), C-terminal, kept
T1 sequence (P20334 24-187): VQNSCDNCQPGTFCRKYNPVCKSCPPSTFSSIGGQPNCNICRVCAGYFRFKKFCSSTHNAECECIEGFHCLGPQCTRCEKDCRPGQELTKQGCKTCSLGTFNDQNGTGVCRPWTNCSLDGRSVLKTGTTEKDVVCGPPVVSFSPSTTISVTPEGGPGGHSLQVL

cynomolgus 4-1BB-mFc = target: T2, cynomolgus 4-1BB-mFc (Macaca fascicularis, UniProt A9YYE7); assay: as above; details: both partners purified
T2 construct: cynomolgus monkey 4-1BB, UniProt A9YYE7, extracellular domain; also called Cy4-1BB; cynomolgus monkey 4-1BB; source: Expi293F, transfected, purified (MabSelect PrismA); not shown: Fc (mouse), C-terminal, kept

Hu4-1BB-His = target: T3, Hu4-1BB-His (Homo sapiens, UniProt Q07011); assay: BLI; Octet Red96, 25 °C; antibody loaded on AHC biosensors; Hu4-1BB-His 200-12.5 nM in 1 × PBS; 500 s association, 30 min dissociation; details: both partners purified
T3 construct: human 4-1BB (CD137, TNFRSF9), His-tagged, bought; No catalogue number is printed; also called human 4-1BB; source: bought: Acro biosystems

human 4-1BB ECD = target: T4, human 4-1BB ECD (Homo sapiens, UniProt Q07011); assay: SPR; Biacore T200, 25 °C; human 4-1BB ECD amine-coupled on a CM5 chip to 300 RU; antibody from 80 μg/mL in two-fold dilutions injected at 30 μL/min; 1:1 Langmuir model; details: both partners purified
T4 construct: human 4-1BB (CD137, TNFRSF9), extracellular domain, coupled to the CM5 chip for SPR; also called CD137; TNFRSF9
T4 sequence (Q07011 24-186): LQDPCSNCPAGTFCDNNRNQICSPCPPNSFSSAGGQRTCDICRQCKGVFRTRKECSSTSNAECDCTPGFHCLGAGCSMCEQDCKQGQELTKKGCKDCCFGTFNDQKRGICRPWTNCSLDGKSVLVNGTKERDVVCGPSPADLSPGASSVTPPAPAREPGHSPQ

Chain of HuB6 (human) (heavy, as listed by the source, chain 1 of 2): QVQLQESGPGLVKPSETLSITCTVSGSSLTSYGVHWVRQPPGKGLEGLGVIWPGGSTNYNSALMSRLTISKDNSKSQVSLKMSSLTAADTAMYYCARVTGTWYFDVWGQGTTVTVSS
Chain of HuB6 (human) (light, as listed by the source, chain 2 of 2): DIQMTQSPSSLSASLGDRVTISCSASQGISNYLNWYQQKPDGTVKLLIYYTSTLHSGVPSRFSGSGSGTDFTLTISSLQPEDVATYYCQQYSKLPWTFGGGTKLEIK
Chain of human FcγRIA (P12314 16-374): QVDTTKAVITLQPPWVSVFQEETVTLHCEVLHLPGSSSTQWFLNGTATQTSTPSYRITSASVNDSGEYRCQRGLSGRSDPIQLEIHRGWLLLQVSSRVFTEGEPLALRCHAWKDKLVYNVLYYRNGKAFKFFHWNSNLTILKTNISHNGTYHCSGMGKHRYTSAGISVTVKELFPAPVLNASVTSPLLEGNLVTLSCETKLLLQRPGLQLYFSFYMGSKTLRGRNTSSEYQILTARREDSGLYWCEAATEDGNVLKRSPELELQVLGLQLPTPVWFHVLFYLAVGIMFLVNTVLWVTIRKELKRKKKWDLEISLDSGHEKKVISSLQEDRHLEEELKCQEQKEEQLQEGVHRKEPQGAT

Row | response (urelumab) | response (HuB6) | response (utomilumab) | binding result (mouse 4-1BB-ECD-mFc) | Molecule | other results
1 | – | – | – | – | human FcγRIA (from UniProt P12314 16-374) (receptor) | Kd (HuB6 (human)): 8.86 nM; koff (HuB6 (human)): 0.0045 s⁻¹; kon (HuB6 (human)): 531000 M⁻¹ s⁻¹
2 | 17000 Mean FITC | 20000 Mean FITC | 3900 Mean FITC | – | wild-type (WT) human 4-1BB antigen on Expi293F cells (from UniProt Q07011) I132 | –
3 | 17000 Mean FITC | 19000 Mean FITC | 2600 Mean FITC | – | wild-type (WT) human 4-1BB antigen on Expi293F cells (from UniProt Q07011) M101 | –
4 | 900 Mean FITC | 15000 Mean FITC | 13000 Mean FITC | – | wild-type (WT) human 4-1BB antigen on Expi293F cells (from UniProt Q07011) N42 | –
5 | – | – | – | no binding | utomilumab (antibody, V domains shown, IgG2; IgG2 mAb; also called PF-05082566; utomilumab-IgG2; source: Expi293F, transfected, purified (MabSelect PrismA)) VH: EVQLVQSGAEVKKPGESLRISCKGSGYSFSTYWISWVRQMPGKGLEWMGKIYPGDSYTNYSPSFQGQVTISADKSISTAYLQWSSLKASDTAMYYCARGYGIFDYWGQGTLVTVSS VL: SYELTQPPSVSVSPGQTASITCSGDNIGDQYAHWYQQKPGQSPVLVIYQDKNRPSGIPERFSGSNSGNTATLTISGTQAMDEADYYCATYTGFGSLAVFGGGTKLTVL | EC50 (cynomolgus 4-1BB-mFc): 0.038 nM
6 | – | – | – | no binding | urelumab (antibody, V domains shown, IgG4; IgG4 mAb; also called BMS-663513; urelumab-IgG4; source: Expi293F, transfected, purified (MabSelect PrismA)) VH: QVQLQQWGAGLLKPSETLSLTCAVYGGSFSGYYWSWIRQSPEKGLEWIGEINHGGYVTYNPSLESRVTISVDTSKNQFSLKLSSVTAADTAVYYCARDYGPGNYDWYFDLWGRGTLVTVSS VL: EIVLTQSPATLSLSPGERATLSCRASQSVSSYLAWYQQKPGQAPRLLIYDASNRATGIPARFSGSGSGTDFTLTISSLEPEDFAVYYCQQRSNWPPALTFGGGTKVEIK | Kd (Hu4-1BB-His): 5.76 ± 0.85 nM; Kd (human 4-1BB ECD): 5.34 ± 0.49 nM

Reference: PMC9461191 (Journal of Translational Medicine, 2022)
